Data taken from patent US20230227580A1, “ANTI-VWF ANTIBODIES AND USES THEREOF” (MONASH UNIVERSITY, priority 2020, published 2023).

Key:
[1] = system: thrombus formation / platelet deposition; experiment: Thrombus formation on collagen type I in stenosis channels (SRG versus constant shear); format: cell-based, human; conditions: for Thrombus formation: 15 minutes of blood flow
Text: (§1) In-house designed PDMS microfluidic chips (FIG. 1A) contained channels of 52 µm height with a footprint of 300 µm x 46 mm (used in FIG. 1) or 300 µm x 17 mm. Selected channels incorporated a semi-circular stenotic section of various lengths (600 µm, 1000 µm or 2000 µm diameter), creating 80% lumen reduction. Chips were manufactured as previously reported (Westein et al. Proceedings of the National Academy of Sciences of the United States of America. 2013 Jan 22;110(4):1357-62). The produced PDMS chips were sealed with cover slips by hydrophobic interaction and coated with collagen by perfusion of collagen solution followed by static incubation at RT for at least 1 hr. Channels were rinsed with PBS and blocked with 2% BSA. Wall shear rates of the input flow for these microchannels were approximated from volumetric flow rates by using the equation, γ = 6Q/wh2. Herein, γ is the wall shear rate (s^-1), Q the volumetric flow rate (mls^-1), w the channel with (cm) and h the channel height (cm).
(§2) Citrated whole blood was incubated with DiOC6 (0.5 µg ml^-1) (Sigma-Aldrich Co, St. Louis, MO, USA) and drawn through microfluidic channels by a programmable syringe pump (Legato 130, KD Scientific, USA). Time-lapse z-stack images of platelet deposition were captured in multiple track, resonant scanning mode, using a Nikon A1R confocal microscope system. Platelet deposition was recorded over time (2 frames per minute) for up to 20 minutes and quantified in ImageJ using a Z-projection of the acquired signal.

[2] = target: T1, denatured full length VWF (Homo sapiens, UniProt P04275); experiment: Western blot of denatured VWF probed with scFv A1; format: binding; conditions: scFv A1 1 µg ml^-1; SDS-PAGE denatured VWF
T1 construct: Denatured full length VWF (Mybiosource, USA) was electrophoresed; purchased Mybiosource
Procedure: Denatured full length VWF (Mybiosource, USA) was electrophoresed at 0.1, 10, 100 ng and 1 µg using 5% SDS-Polyacrylamide gel at 125 V for 90 min. The protein was transferred onto PVDF membrane at 90V for 90 min followed by incubation with 1 µg ml^-1 scFv A1 overnight and the membrane was probed with horse-radish peroxidase (HRP)-conjugated detection antibody (1:2500, Sigma).
Later, the membrane was stripped and reprobed with 1 µg ml^-1 polyclonal sheep anti-VWF antibody (Abcam), followed by donkey anti-sheep HRP-conjugated secondary antibody (1:2500, R&D Systems, USA). Chemiluminescent detection of protein bands was done using ECL Western Blotting Substrate (ThermoFisher) and visualisation using a ChemiDoc Touch Imaging system (Bio-Rad, UK).

VWF-platelet interaction = experiment: Platelet-VWF adhesion on collagen III in stenotic microfluidic channels (SRG versus constant shear); format: cell-based, human
Text: as §1, §2
For experiments measuring rolling velocities, anti αllbβ3 antibody (abciximab; 20 µg ml^-1)-treated whole blood containing 0.5 µg ml^-1 DiOC6 was drawn over a collagen type III-coated surface. Where indicated, blood was incubated with 30 µM aspirin (Sigma Aldrich, USA) and 300 µM 2-MeSAMP (Sigma-Aldrich Co, St. Louis, MO, USA) prior to blood perfusion. 10 second video clips of rolling platelets were recorded in the green fluorescent channel using an Olympus IX81 microscope system. Platelet rolling velocities were calculated using Diatrack v3.04 large scale particle tracking software (Vallotton et al. Microsc Microanal. 2013 Apr;19(2):451-60).

VWF-A1 domain = target: T2, VWF-A1 domain (Homo sapiens, UniProt P04275); experiment: BLItz bio-layer interferometry, immobilized VWF-A1 domain; format: binding; conditions: scFv-A1 20, 40 and 100 µg ml^-1
T2 construct: coated with purified full length VWF or isolated A1 domain
Procedure: (§3) Bio-layer Interferometry was performed on a BIItz System (Pall Forte Bio, USA). Protein-A biosensors were hydrated for 30 minutes in PBS-Tween (0.05%) and loaded with VWF-A1 domain (130 µg ml^-1). Remaining binding sites were blocked by exposure to a polyclonal mouse IgG for 5 min. Sequential adhesion of scFv-A1 at 0, 20, 40 and 100 µg ml^-1 was monitored for 5 min per concentration. Real time visualisation of binding interactions between scFv A1 and full length VWF/A1 domain was performed using the BLItz Pro software. Traces were manually baseline aligned and corrected for control binding (0 µg ml^-1 scFv-A1).

full length VWF = target: T3, full length VWF (Homo sapiens, UniProt P04275); experiment: ELISA binding to immobilized full length VWF; conditions: scFv A1 5 µg ml^-1; ristocetin 0.75 mg ml^-1
T3 construct: coated with purified full length VWF or isolated A1 domain
Procedure: ELISA wells (Thermo Fisher Scientific) were coated with purified full length VWF or isolated A1 domain at 0.1, 1 and 10 µg ml^-1 in the presence of ristocetin (0.75 mg ml^1) and blocked with 2% BSA. Next, the coated wells were incubated with 5 µg ml^-1 of scFv A1 or sheep anti-VWF antibody followed by incubation with an HRP-conjugated secondary antibody (Anti-his HRP for scFv A1, Donkey anti-sheep HRP antibody for sheep anti-VWF antibody) (1:4,000). Readings were measured at 450 nm on a BMG Optima multi-well reader.

VWF-full length = target: T4, VWF-full length (Homo sapiens, UniProt P04275); experiment: BLItz bio-layer interferometry, immobilized full length VWF; conditions: BLItz binding assay
T4 construct: coated with purified full length VWF or isolated A1 domain
Procedure: as §3

- Complex formation with denatured VWF [2]: did not show any complex formation
- Binding to immobilized VWF-A1 domain (VWF-A1 domain): did not observe any binding
- Binding to immobilized full length VWF (full length VWF): did not bind
- Binding to immobilized VWF-full length (VWF-full length): did not observe any binding
B1: scFv A1: single chain antibody combining variable heavy chain of mAb CR1 with variable light chain of mAb CR2; VH SEQ ID NO: 11, VL SEQ ID NO: 10 (antibody, V domains shown)
VH: QVQLQQPGAELVRPGASVKLSCKASGYSFTNYWMSWVKQRPGQGLEWIGMIHPSDSDTRLNQKFKDKATLTVDKSSSTAYMQLSSPTSEDSAGLLLCKKFEGWLPVLLGPRHHSHSLLS
VL: DIELTQSPASLAVSLGQSYRASCKSVSTSGYSYMHWNQQKPGQPPRLLIYLVSNLESGVPARFSGSGSGTDFTLNIHPVEEEDAATYYCQHIRELTRSEGDQAEINR
modifications: scFv linker; Mouse
- Thrombus formation ([1]; 2000 s^-1 constant shear): no effect
- Thrombus formation ([1]; SRGs (187-1,500 s^-1)): inhibited thrombus formation
- Thrombus formation ([1]; SRGs (300-2,000 s^-1)): inhibited thrombus formation
- Inhibition of thrombus formation ([1]; scFv A1 2.5 µg ml^-1): absent
- Inhibition of thrombus formation ([1]; scFv A1 5 µg ml^-1): showed inhibition
- Relative thrombus growth (ratio of intensity in the last frame over the first frame) ([1]; scFv A1 5 µg ml^-1, SRG, 1,500 s^-1 in stenosis apex, control 1.58±0.22, p<0.001): 1.2±0.09
- Relative thrombus growth (ratio of intensity in the last frame over the first frame) ([1]; scFv A1 5 µg ml^-1, SRG, 2,000 s^-1 in stenosis apex, control 1.85±0.28, p<0.0001): 1.17±0.07
- Relative thrombus growth (ratio of intensity in the last frame over the first frame) ([1]; scFv A1 5 µg ml^-1, constant shear 1,500 s^-1, 10 minutes, other value of the pair 1.48±0.16): 1.62±0.2
- Relative thrombus growth (ratio of intensity in the last frame over the first frame) ([1]; scFv A1 5 µg ml^-1, constant shear 2,000 s^-1, 10 minutes, other value of the pair 2.11±0.23): 1.9±0.36
- Effect on platelet deposition ([1]; scFv A1 5 µg ml^-1, constant shear, straight channel sections): no effect
- Inhibition of thrombus formation ([1]; scFv A1 10 µg ml^-1): showed inhibition
- Platelet adhesion (VWF-platelet interaction; scFv A1 5 µg ml^-1, stenosis apex, control 3934±892, p=0.7932): 3805±783 platelets/mm^2
- Platelet-VWF adhesion (VWF-platelet interaction; scFv A1 5 µg ml^-1, stenosis inlet, control 6187±1097, p=0.0013): 5158±1032 platelets/mm^2
- Platelet adhesion (VWF-platelet interaction; scFv A1 5 µg ml^-1, stenosis outlet, control 5042±1167, p=0.07): 4475±1199 platelets/mm^2
- Platelet deposition (VWF-platelet interaction; scFv A1 5 µg ml^-1, straight section, constant shear, control 2047±232, p=0.0195): 3096±690 platelets/mm^2
- Relative amount of VWF per platelet deposited on aggregates (VWF-platelet interaction; scFv A1, areas of SRGs and constant shear): not reduced
